In US20070053889A1 (AMSTERDAM MOLECULAR THERAPEUTICS AMT IP B V, published 2007):

Target: T1, integrin α4β7 expressed on transduced human CD4+ T cells (human, UniProt P13612 34-1032; P26010 20-798)
T1 construct: whole, on cells; Endogenous integrin on sorted human CD4+ cells transduced with the GFP or IL-10-GFP retroviral vector; The cells were CFDSE-labelled in the adhesion assay; also called αA4β7; gut-homing molecule α4β7
Assay: cell adhesion assay with blocking mAbs
Description: Adhesion of sorted CD4⁺ cells, transduced with GFP (1 donor) or IL-10-GFP (2 donors), to MAdCAM-1 transfected 293T cells was determined after preincubation with or without the following mAbs: 145 2C11 (control), act-1 (αA4β7) or MECA-367 (αMAdCAM-1). Fluorescent-labelled CD4⁺ cells were added to a 96 well plate that contained confluent MAdCAM-1 transfected 293T cells or control 293T cells. Relative binding inhibition was referred to the maximum binding achieved in the absence of mAbs (as described in Materials and Methods).
We investigated whether transduced CD4⁺ cells were able to bind to the mucosal addressin MAdCAM-1 measuring their adhesion to 293T cells stably expressing the murine MAdCAM cDNA (kindly provided by Dr. S. Fong, Genentech Inc., San Fransisco, Calif., USA). […] Fluorescence was measured in a Cytofluor plate reader (Perceptive Biosystems, Frarningham, Mass., USA) before and after washing. The adherence was calculated as the percentage of fluorescent cells remaining after washing. The maximum binding was calculated as the difference in adherence to MAdCAM-1 transfected and control 293T cells.

T1 sequence (P13612 34-1032, chain 1 of 2): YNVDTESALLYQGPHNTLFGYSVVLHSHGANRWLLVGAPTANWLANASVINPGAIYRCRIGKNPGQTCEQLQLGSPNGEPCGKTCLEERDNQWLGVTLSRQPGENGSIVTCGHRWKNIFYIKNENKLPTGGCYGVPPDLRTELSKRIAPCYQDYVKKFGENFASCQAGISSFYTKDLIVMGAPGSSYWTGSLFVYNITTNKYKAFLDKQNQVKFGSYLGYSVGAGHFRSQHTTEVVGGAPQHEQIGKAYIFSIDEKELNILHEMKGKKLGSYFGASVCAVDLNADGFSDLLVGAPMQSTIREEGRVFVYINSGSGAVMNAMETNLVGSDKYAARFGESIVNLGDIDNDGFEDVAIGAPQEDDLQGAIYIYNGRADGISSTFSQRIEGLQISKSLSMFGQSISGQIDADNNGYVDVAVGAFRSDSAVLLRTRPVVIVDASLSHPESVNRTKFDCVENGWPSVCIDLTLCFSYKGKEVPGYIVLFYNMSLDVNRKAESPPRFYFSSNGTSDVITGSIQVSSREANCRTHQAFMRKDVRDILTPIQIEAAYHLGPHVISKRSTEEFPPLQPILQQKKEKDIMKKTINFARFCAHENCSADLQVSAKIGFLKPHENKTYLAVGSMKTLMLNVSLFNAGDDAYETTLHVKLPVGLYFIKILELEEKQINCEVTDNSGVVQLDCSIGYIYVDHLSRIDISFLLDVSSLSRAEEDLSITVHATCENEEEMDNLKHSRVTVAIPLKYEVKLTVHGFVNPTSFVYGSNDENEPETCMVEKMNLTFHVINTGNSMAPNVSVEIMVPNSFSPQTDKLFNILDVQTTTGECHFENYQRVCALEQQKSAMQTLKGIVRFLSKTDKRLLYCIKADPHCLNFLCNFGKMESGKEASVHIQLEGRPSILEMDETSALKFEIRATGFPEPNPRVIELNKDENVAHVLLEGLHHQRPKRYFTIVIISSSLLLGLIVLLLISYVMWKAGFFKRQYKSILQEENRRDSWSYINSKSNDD
T1 sequence (P26010 20-798, chain 2 of 2): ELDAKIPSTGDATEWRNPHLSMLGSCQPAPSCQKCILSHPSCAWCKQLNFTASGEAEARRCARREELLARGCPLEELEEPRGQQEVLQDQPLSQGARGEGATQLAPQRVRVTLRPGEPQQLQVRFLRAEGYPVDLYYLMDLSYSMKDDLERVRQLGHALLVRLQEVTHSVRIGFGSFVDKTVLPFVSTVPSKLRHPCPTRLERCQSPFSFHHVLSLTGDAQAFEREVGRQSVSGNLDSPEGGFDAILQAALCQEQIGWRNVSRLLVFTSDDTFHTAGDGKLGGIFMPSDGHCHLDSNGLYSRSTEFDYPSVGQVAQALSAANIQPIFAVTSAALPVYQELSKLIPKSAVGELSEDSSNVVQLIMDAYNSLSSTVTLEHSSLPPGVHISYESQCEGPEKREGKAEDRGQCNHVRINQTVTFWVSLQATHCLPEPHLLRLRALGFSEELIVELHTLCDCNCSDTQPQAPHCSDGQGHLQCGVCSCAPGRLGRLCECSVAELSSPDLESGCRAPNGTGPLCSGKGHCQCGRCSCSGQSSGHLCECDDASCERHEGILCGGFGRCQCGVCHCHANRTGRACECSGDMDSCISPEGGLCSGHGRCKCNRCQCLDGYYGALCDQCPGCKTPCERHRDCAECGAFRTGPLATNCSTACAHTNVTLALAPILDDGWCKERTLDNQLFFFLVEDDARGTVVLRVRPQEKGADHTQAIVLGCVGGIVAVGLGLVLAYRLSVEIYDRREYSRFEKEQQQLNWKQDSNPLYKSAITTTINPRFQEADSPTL

B1: murine MAdCAM-1 stably expressed on 293T cells (ligand, UniProt Q61826 22-405, looked up)
chain: QSFQVNPPESEVAVAMGTSLQITCSMSCDEGVARVHWRGLDTSLGSVQTLPGSSILSVRGMLSDTGTPVCVGSCGSRSFQHSVKILVYAFPDQLVVSPEFLVPGQDQVVSCTAHNIWPADPNSLSFALLLGEQRLEGAQALEPEQEEEIQEAEGTPLFRMTQRWRLPSLGTPAPPALHCQVTMQLPKLVLTHRKEIPVLQSQTSPKPPNTTSAEPYILTSSSTAEAVSTGLNITTLPSAPPYPKLSPRTLSSEGPCRPKIHQDLEAGWELLCEASCGPGVTVRWTLAPGDLATYHKREAGAQAWLSVLPPGPMVEGWFQCRQDPGGEVTNLYVPGQVTPNSSSTVVLWIGSLVLGLLALVFLAYRLWKCYRPGPRPDTSSCTHL
notes: whole, on cells; 293T cells stably expressing the murine MAdCAM cDNA (from Dr. S. Fong, Genentech); also called mucosal addressin MAdCAM-1
binding result: binds
